Data taken from article PMC12529457, “Selection of DNA Aptamers Against Parathyroid Hormone for Electrochemical Impedimetric Biosensor System Development”.

Experiments:
Assay in all cases: fluorescent magnetic bead binding assay; peptide on beads, aptamer 100-2500 nM; Bead assay: SELEX conditions (PBS, room temperature), 30 min incubation then wash, pH not stated; EIS: 30 min at ambient temperature, PBS wash, read in 0.1 M KCl with 5 mM ferri/ferrocyanide
Settings in all cases: protein: commercial; tags: none stated; amine-coupled to carboxy magnetic beads
PTH (53-84) = target: T1, PTH (53-84) (UniProt P01270 84-115)
T1 chain: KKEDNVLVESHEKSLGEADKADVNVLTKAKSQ

PTH (1-84) = target: T2, PTH (1-84) (UniProt P01270 32-115)
T2 sequence: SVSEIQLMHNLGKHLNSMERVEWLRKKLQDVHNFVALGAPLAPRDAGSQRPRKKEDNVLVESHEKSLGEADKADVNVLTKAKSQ

PTH (1-34) = target: T3, PTH (1-34) (UniProt P01270 32-65)
T3 chain: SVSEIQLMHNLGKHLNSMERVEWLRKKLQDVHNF

For GCGTGGTATGTGCGTCGTCGCTAATGAATTTGTAGCCTAC (ssDNA) [Aptamer-PTH (53-84)], which Kd (PTH (53-84)) is on record?
Its Kd is 220 ± 57.5 nM.

With TATTGGTATGTGCGTCGTCGGTGACCTCTTTCACGGCCGG (ssDNA) [Aptamer-PTH (1-84)] as the binder, how does the Kd (PTH (1-84)) read?
Its Kd is 340 ± 23.3 nM.

With GCGTGGTATGTGCATCGTCAGTGAGGGGTTGGCGGCCGAG (ssDNA) [Aptamer-PTH (1-34)] as the binder, how does the Kd (PTH (1-34)) read?
Its Kd is 516 ± 41 nM.
